Measured values as given in paper PMC5672941.

Molecular target: SpyTag fused to an elastin-like polypeptide with a C-terminal cysteine
Test: core-shell assembly of protein-coated particles

## SpyCatcher fused to an elastin-like polypeptide with a C-terminal cysteine (designed binder)
  percent of the core aggregate surface occupied by green (shell) particles: 60%
